From paper PMC10070764, “S100B chaperone multimers suppress the formation of oligomers during Aβ42 aggregation” (Frontiers in Neuroscience, 2023)

B1: tetrameric S100B (natural protein, human, UniProt P04271 1-92, looked up)
chain: MSELEKAMVALIDVFHQYSGREGDKHKLKKSELKELINNELSHFLEEIKEQEVVDKVMETLDNDGDGECDFQEFMAFVAMVTTACHEFFEHE
notes: Same chain as m1, isolated as the tetramer; used in the aggregation assays in the Ca^2+-free (apo) state (1.1 mM EDTA); also called apo-S100B tetramer; tetrameric apo-S100B; source: E. coli BL21 (DE3) E. Cline Express, purified to homogeneity
B2: dimeric S100B (natural protein, human, UniProt P04271 1-92, looked up)
chain: B1 chain
notes: also called S100B-Ca^2+ dimer; dimeric S100B-Ca^2+; source: E. coli BL21 (DE3) E. Cline Express, purified to homogeneity

How the values were obtained:
[1] = molecular target: the molecule itself; assay: SEC + other: electrophoresis; oligomeric state validation of the purified S100B dimer and tetramer preparations, as described (Figueira et al., 2022); conditions not given
[2] = molecular target: amyloid-β 1–42 (Aβ42) peptide (UniProt P05067 672-713); assay: cell-based or functional assay
amyloid-β 1–42 (Aβ42) peptide, sequence (P05067 672-713): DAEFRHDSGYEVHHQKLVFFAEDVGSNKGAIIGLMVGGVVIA

Binder	stoichiometry N [1]	ThT-subtracted X-34 kinetic traces of Aβ42 (2 μM) aggregation: X-34 positive AβO relative to Aβ42 alone, apo-S100B tetramer:Aβ42 ratios up to 0.5 (effect already at 0.25) [2] [%]
B1	4	25
B2	2	
